The values below are quoted from earlier work in article PMC3906610.

This series concerns the target PagP (Escherichia coli) (UniProt P37001).
Sequence of UniProt P37001 (P37001 26-186): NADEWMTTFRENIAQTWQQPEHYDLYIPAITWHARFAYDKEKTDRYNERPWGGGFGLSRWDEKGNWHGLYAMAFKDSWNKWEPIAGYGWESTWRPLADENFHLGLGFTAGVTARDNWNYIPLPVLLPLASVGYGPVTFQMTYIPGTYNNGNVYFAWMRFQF

Turning to Skp (from UniProt P0AEU7), the Kd (as a rule, the constant that tells how readily two partners part at equilibrium) is 11.8 nM.
